Measurements taken from patent publication US20170174783A1 (Zymeworks, published 2017).

Key:
[1] = target: T1, HER2 on the surface of human tumour cell lines (human, UniProt P04626 23-1255); assay: flow cytometry on MALME-3M cells
T1 construct: whole, on cells; also called ErbB2; Her2 receptor

[2] = target: T1, HER2 on the surface of human tumour …; assay: flow cytometry on SKOV3 cells
Procedure: (§1) Binding of the test antibodies to the surface of SKOV3 cells was determined by flow cytometry. Cells were washed with PBS and resuspended in DMEM at 1×10⁵ cells/100 μl. 100 μl cell suspension was added into each microcentrifuge tube, followed by 10 μl/tube of the antibody variants. The tubes were incubated for 2 hr 4° C. on a rotator. The microcentrifuge tubes were centrifuged for 2 min 2000 RPM at room temperature and the cell pellets washed with 500 μl media. Each cell pellet was resuspended 100 μl of fluorochrome-labelled secondary antibody diluted in media to 2 μg/sample. The samples were then incubated for 1 hr at 4° C. on a rotator. After incubation, the cells were centrifuged for 2 min at 2000 RPM and washed in media. The cells were resuspended in 500 μl media, filtered in tube containing 5 μl propidium iodide (PI) and analyzed on a BD LSRII flow cytometer according to the manufacturer's instructions.

[3] = target: T1, HER2 on the surface of human tumour …; assay: flow cytometry on SKOV3 cells; remark: listed apart in the source
Procedure: as §1

EC50 (read off the curve) [1]: ~30 nM
Kd [2]: 12.4 nM
fold difference in Bmax, OA4-scFv-BID2 against FSA-scFv-BID2 [3]: 1.96 fold
fold difference in KD, OA4-scFv-BID2 against FSA-scFv-BID2 [3]: 2.03 fold
B1: OA4-scFv-BID2 (antibody)
chain 1: QVQLVQSGAEVKKPGESLKISCKGSGYSFTSYWIAWVRQMPGKGLEYMGLIYPGDSDTKYSPSFQGQVTISVDKSVSTAYLQWSSLKPSDSAVYFCARHDVGYCTDRTCAKWPEWLGVWGQGTLVTVSSGGGGSSGGGSGGGGSQSVLTQPPSVSAAPGQKVTISCSGSSSNIGNNYVSWYQQLPGTAPKLLIYDHTNRPAGVPDRFSGSKSGTSASLAISGFRSEDEADYYCASWDYTLSGWVFGGGTKLTVLGAAEPKSSDKTHTCPPCPAPELLGGPSVFLFPPKPKDTLMISRTPEVTCVVVDVSHEDPEVKFNWYVDGVEVHNAKTKPREEQYNSTYRVVSVLTVLHQDWLNGKEYKCKVSNKALPAPIEKTISKAKGQPREPQVYTYPPSRDELTKNQVSLTCLVKGFYPSDIAVEWESNGQPENNYKTTPPVLDSDGSFALVSKLTVDKSRWQQGNVFSCSVMHEALHNHYTQKSLSLSPGK
chain 2: not shown
notes: also called 878
